Experiment: soluble on expression in E. coli; label from the status in PepcDB or PDB records

Sequence | soluble on expression in E. coli
MAHHHHHHMLRHLPPPRAHPSPAFCHTHARMHLLQAPPSPHPHPTRTPLQTLCVILPPAMQVELSFIFPHALKELPVSFFVPLSSQRPRTVANLFFMCSGQLPLPAELLSALHLTEAEVAYATPAAAKAAGLLPLSDSAVVRIDKASVMEIGSSTTKSIFGGFISDERVTLPAGTAARGQSIAATMSSLKAGTLLYGNLGMPNTQASRYYILLEPVTTPEQRHEFAGFAPLGMVTGGLAELKRAASQTAVQPRTLVPKKKVVVSGCRMQLDYTYLSSSTEASASVSLGGLCDGTGQDAGKQRPTEPHERVAGRVRRRDDDGDEAKQADPRRALDGDGNTTDPGAAPLHSSGFFKISARFPKAAVAASGAGPSLKRRRAEAFVVGDDGVPTLRTTAIAPGEQVGGDGTAEPFEFFKAQQDAFMNDIEGIKDAQLQRFNRKARRIMKSRRAWASSSSSGRHANSQQHSSSSGTHVTGSGALSKTGAKKTKPKRY | not soluble
MTLNIYTEEWAPISFSVDGKPDGLAVQVVQEIQKRIDNQDPIKVVPWARGWKIITEQPNTVLFTMTRTAERERMFSLIGPVAVGTTNFYALKNSNLKINLEHHHHHH | not soluble
SNAMTTKRVKKMGKEEMKEMFDLVIYAFNQEPTAERQERFEKLLSHTQSYGFLIDEQLTSQVMATPFQVNFHGVRYPMAGIGYVASYPEYRGEGGISAIMKEMLADLAKQKVALSYLAPFSYPFYRQYGYEQTFEQAEYTIKTEDWPRVKRVPGTIKRVSWADGKEVIKDVYLENQRAHSGGVIRETWWLDYTLNRASKPNNQAIYYSSEGKAEGYVIYRIAAGTFEIVEWNYLTNTAFKALAGFIGSHSGSVQSFHWINGFAGKDLNDLMPTPAASVKILPYMMARIVELQTFLEKYPFQSGEKETYSLEIEDSYGPWNEGIWTITIDEQGKATVTKGAAEKEGTAALKADIQTWTQLFLGYRSAETLSFYERLQGDATIAQRLGQRLVKGMPILEDYF | soluble
MARLIVNALVSVPLAEIEIGFVRSGGAGGQNVNKLATAAHLRFDIAASSLPETCKTRLLDHRDRRMTAEGIIVIKAQRFGTQEKNREDALARLRGLILQALAQRRPRKPTRPTLAAKKKRLDEKTRHGEIKRLRRRIGDLEHHHHHH | not soluble
MKLREQINSISGFRYVIDELCIHSSVGRRCLMEQEFLTEASDIEVLLSRVEIAISYQADQRKQKGLDEIAHKLMQLRDIQGTIYSLSRHVVCTDIDFFEIKFLAILSEDIRDLIRFYQLDDLSSPLPDLSHIVSVLDPEEKKIPHFYIYDAYS | not soluble
MSLTDAILYELHIRDATIHPGSGVSKKGTYKGLMEEGTTGRNGTLTGLSHIKDLGVTHVELLPLYCFGGVDEANPSSAYNWGYNPLYYNAPTGYYATNPSDPYNRIVECKQLIETFHEHGIRVIIDVVYNHVYERELSSFEKLVPGYYFRHGENGMPSNGTGVGNDIASERKMMRKFIVESILYWLTEYNVDGFRFDLMGILDVDTINIIEKEVRNIKRDALLLGEGWDLQTPLPLEEKATLNNAKKMPHIAQFNDQFRDGIKGSTFHINKRGFAFGGYVDCNHLQYIASGSLLSMKETGLFLEPVQSINYVECHDNMTMWDKLMRSNEESEEILKKRHLLATAMVILSQGIPFLHAGQEFYRTKQGNENSYNANDEINQLDWDRKEKEIETVNYIKGLIAIRKEHGAFRLQNADLIKKHMTFLQTSPEVLAYHLEHVESFGPWKEIVVLFNSSLEAKTVQLPKEETWHVLVNEKQAKIEPISSFRGKELRLAPISTYILTIMEGHHHHHH | not soluble
MGSDKIHHHHHHMWDRGLHSYRMVHATLKCGCHYLGRVPKNVKFPVDKVLDDGSYLSWIAPDRKSKHKGGTRIQVRVIEYTIDSENGQQTYRLIPSLMDIALFPALLLATEYHQRWEIENTIDELKTHLNGRKTPIRSLKPREVVQEIYGWLLSHYAVRTLMFQAATAASISPLRLGFTGTLKVIRRAIADFQDANSEQLPFFLQANSGDFGAKNPYRRYIAALTQQRDFNLLILQNRLDHRFTNGCIPVFIIPKQINNREGLLQKTEVRK | not soluble
